Measurements as given in article PMC10187114.

Columns and labels:
[1] = biological target: VPS35L (human) (UniProt Q7Z3J2); assay: SEC; Retriever co-expressed in insect cells, affinity purification then size-exclusion chromatography (Superdex200, 25 mM HEPES pH 8.0, 300 mM NaCl, 2 mM β-mercaptoethanol, 4°C)
[2] = biological target: VPS29 (recombinant) (human) (UniProt Q9UBQ0); assay: ITC; VPS35L peptides at 600 μM titrated into 20 μM VPS29, 100 mM Tris pH 7.4, 300 mM NaCl, 25°C, single site model

| Substance | stoichiometry N [1] | Kd [2] [µM] |
| --- | --- | --- |
| 3xStrepII-VPS26C (from UniProt O14972 1-297) (natural protein) | 1 |  |
| VPS35L (28-37) peptide (from UniProt Q7Z3J2 28-37) |  | 6.8 |
